From US20200347138A1 (INDIAN INSTITUTE OF SCIENCE, published 2020)

How the values were obtained:
human DEC205 = target: T1, human DEC205 (human, UniProt O60449 28-1722); assay: flow cytometry on CHO/hDEC205 cells, hCG a/s and anti-rabbit IgG-FITC
T1 construct: also called hDEC205; CHO/hDEC205
Procedure: The ability of ScFv to load antigen onto the human DEC205 was checked by flow cytometry.
The complex was incubated with CHO/hDEC205 cells for one hour at 4□ followed by incubation with hCG a/s and subsequently with anti-Rabbit IgG FITC and binding was analyzed by flow cytometry.

MAb B52/28 = target: T2, MAb B52/28; assay: RIA: unlabelled hormone displaces 125I-hCG from MAb 52/28 [left panel (A]
T2 construct: hCG heterodimer specific monoclonal antibody used in the RIA
Procedure: The antigen-antibody complexes formed were precipitated by adding an appropriate dilution of the normal mouse/rabbit serum, and goat anti-mouse/rabbit IgG followed by addition of 2.5% PEG. The tubes were centrifuged at 4,000 g for 20 minutes at 4 □, the supernatant was discarded and the radioactivity in the pellet was counted in Perkin Elmer γ-counter. The non-specific binding was determined by carrying out binding experiments in the absence of the primary antibodies.
The biotin tagged hormonal antigens were analyzed by RIA using hormone specific antibodies (52/28 for hCG and FSH a/s for hFSH) for their ability to retain their immunodominant epitopes. […] The NIH iodination grade hCG and hFSH were used as the standard reference preparations in the RIA and were used for comparing the bioactivity of these hormonal antigens.

T1 sequence (O60449 28-1722 K1321N/Y1391H limits assumed): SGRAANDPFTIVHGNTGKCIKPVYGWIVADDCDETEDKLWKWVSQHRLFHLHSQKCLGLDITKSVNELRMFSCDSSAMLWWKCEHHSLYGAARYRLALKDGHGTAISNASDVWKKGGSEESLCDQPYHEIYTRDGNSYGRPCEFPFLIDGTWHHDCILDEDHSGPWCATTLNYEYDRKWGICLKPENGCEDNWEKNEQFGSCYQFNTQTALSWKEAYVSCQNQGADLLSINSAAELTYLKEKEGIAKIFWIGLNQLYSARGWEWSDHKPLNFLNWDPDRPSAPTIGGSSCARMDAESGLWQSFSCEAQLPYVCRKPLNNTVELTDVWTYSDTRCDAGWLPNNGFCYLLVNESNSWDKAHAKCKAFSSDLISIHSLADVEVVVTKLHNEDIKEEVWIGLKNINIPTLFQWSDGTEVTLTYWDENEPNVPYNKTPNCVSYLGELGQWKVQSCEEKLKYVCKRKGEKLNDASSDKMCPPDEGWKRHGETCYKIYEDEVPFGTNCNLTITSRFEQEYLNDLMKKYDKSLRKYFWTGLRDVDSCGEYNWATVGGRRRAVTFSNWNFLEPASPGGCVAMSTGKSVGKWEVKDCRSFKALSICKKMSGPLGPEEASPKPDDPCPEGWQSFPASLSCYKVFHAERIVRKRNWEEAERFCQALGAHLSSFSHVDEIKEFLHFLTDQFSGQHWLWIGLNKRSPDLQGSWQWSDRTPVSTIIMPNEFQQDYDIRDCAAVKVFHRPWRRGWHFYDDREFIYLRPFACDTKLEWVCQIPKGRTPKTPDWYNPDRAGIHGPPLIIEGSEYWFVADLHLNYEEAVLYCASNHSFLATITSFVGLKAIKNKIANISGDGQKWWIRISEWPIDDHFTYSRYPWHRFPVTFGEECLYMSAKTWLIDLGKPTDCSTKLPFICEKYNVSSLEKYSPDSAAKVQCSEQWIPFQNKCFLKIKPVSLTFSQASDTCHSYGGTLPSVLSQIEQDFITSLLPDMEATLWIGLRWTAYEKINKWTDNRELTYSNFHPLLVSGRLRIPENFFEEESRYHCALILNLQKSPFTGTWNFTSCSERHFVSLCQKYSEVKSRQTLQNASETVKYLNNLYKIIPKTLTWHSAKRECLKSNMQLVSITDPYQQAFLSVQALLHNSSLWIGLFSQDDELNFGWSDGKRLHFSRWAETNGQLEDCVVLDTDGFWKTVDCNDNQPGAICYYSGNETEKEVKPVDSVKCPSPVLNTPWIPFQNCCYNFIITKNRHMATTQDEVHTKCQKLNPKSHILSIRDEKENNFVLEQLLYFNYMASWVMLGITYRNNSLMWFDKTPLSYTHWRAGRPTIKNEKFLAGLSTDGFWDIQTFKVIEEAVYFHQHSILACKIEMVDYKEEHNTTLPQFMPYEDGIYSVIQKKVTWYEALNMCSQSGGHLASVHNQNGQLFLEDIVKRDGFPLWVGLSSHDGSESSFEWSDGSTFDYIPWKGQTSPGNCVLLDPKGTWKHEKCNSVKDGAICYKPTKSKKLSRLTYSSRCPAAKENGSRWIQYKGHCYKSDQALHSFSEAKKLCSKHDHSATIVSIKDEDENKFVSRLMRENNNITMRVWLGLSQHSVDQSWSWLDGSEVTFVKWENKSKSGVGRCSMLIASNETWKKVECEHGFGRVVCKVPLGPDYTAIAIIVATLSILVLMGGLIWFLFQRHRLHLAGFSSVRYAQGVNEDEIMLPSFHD

binding result (human DEC205): no binding
IC50 (read off the curve) (MAb B52/28): ~6 ng/tube
B1: biotin tagged recombinant human chorionic gonadotropin (ligand)
chain 1: not shown
chain 2: SKEPLRPRCRPINATLAVEKEGCPVCITVNTTICAGYCPTMTRVLQGVLPALPQVVCNYRDVRFESIRLPGCPRGVNPVVSYAVALSCQCALCRRSTTDCGGPKDHPLTCDDPRFQDSSSSKAPPPSLPSPSRLPGPSDTPILPQ
modifications: biotin by Sulfo-NHS-LC Biotin on the hormone, sites not stated
notes: also called biotin-hCG
